# Laboratory results as given in paper PMC3842841, “VacA, the vacuolating cytotoxin of Helicobacter pylori, binds to multimerin 1 on human platelets” (Thrombosis Journal, 2013).
# T1: VacA, the vacuolating cytotoxin of Helicobacter pylori (Helicobacter pylori ATCC49503, UniProt Q48245 34-854)
# T1 sequence: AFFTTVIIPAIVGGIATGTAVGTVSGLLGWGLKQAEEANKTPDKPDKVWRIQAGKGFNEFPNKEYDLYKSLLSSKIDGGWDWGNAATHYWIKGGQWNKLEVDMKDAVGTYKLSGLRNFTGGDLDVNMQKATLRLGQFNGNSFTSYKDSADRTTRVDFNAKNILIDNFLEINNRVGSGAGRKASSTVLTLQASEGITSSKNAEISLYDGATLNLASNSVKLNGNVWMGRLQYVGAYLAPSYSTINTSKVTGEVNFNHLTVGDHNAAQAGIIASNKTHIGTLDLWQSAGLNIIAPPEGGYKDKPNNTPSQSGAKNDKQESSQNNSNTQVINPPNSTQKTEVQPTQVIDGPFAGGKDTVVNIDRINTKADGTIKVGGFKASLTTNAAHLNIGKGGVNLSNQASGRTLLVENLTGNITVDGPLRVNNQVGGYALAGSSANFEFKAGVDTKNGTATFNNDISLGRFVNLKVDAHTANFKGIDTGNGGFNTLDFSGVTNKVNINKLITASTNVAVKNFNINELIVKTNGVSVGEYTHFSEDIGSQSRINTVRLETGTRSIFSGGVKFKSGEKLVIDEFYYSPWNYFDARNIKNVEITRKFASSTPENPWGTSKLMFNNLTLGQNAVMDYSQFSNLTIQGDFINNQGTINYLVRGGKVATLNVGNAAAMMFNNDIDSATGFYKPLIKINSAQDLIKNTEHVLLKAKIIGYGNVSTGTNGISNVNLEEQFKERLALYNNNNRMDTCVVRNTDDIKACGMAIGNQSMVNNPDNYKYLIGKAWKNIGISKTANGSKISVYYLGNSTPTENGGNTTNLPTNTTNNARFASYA
# B1: Glutathione S-transferase (GST)-fusion protein of multimerin 1 (291a.a. ~ 391a.a.) (domain or fragment)
# chain: IHTNQAESHTAVGRGVAEQQQQQGCGDPEVMQKMTDQVNYQAMKLTLLQKKIDNISLTVNDVRNTYSSLEGKVSEDKSREFQSLLKGLKSKSINVLIRDIV
# notes: multimerin 1 (MMRN1), residues 291-391; also called GST-MMRN1; GST-fusion protein of partial MMRN1 (291aa-391aa); source: bought: Abnova Corporation
# Molecular target: T1, VacA, the vacuolating cytotoxin of …
# Experiment: SPR; BIAcore X, 25°C; GST-MMRN1 amine-coupled to a CM5 chip; VacA in PBS with 1 mM Ca++ perfused at 20 μL/min; control surface subtracted
# Details: both partners purified
binder,measurement,value
B1,Kd,33 nM
